Source: article PMC7181697

Tests used:
REV7^K129A (human) = REV7^K129A (human) (UniProt Q9UI95); assay: ITC; in the context of MBP-SHLD2(1-60) (Supplementary Fig. 5a, b)
MBP-SHLD2(1–60) (human) = MBP-SHLD2(1–60) (human) (UniProt Q86V20); assay: ITC; ITC200, 25 °C, 20 mM Tris pH 8.0, 150 mM NaCl, 1% glycerol, 1 mM TCEP; one set of sites model
MBP-SHLD2(1–60) (human), sequence (Q86V20 1-60): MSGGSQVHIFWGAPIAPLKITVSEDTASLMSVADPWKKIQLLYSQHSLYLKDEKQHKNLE

REV7^K129A (human), sequence (Q9UI95 whole entry K129A): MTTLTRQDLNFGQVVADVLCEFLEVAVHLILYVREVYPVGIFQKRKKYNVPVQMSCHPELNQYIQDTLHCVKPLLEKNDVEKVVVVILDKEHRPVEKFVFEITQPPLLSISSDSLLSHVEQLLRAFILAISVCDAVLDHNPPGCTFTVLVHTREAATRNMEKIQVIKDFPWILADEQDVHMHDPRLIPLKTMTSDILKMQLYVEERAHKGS

Substance	Kd (REV7^K129A (human))	Kd (MBP-SHLD2(1–60) (human))
REV7^K129A-SHLD3(1–82) (from UniProt Q9UI95 1-211; Q6ZNX1 1-82) (complex)	410 nM	–
REV7^W171A-SHLD3(1–82) (from UniProt Q9UI95 1-211; Q6ZNX1 1-82) (complex)	–	59 nM
REV7^Y63A-SHLD3(1–82) (from UniProt Q9UI95 1-211; Q6ZNX1 1-82) (complex)	–	600 nM
